± gives the standard deviation.

The series is described as follows: protein stability index of a GFP-peptide fusion (GPS, HEK-293T) (PSI 1-6); higher = more stable.
Setting [1] is: treatment: DMSO, c terminus: a fixed tail appended.
Where [2] appears, read: treatment: MLN4924 1 uM, 8 h, c terminus: a fixed tail appended.
The mark [3] stands for this setting: treatment: DMSO, c terminus: native.
[4] abbreviates: treatment: MLN4924 1 uM, 8 h, c terminus: native.
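Further: 24-mer peptide tiles fused after GFP, lentivirally expressed, FACS-sorted into six equal bins by GFP/DsRed ratio, decoded by Illumina sequencing, PSI is the read-weighted mean bin number.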

Turning to VLTEPILIETYTGLMSFIGNRNKL [TPRG1], the protein stability index is 2.21 ± 0.36 under setting [1] and 2.27 ± 0.51 under setting [2]. On the same counts, the results for VLTIALPVPVIVSNFNYFYHRETE [KCNA1] are 3.02 ± 0.47 and 3.06 ± 0.41. Regarding VLVNLVPAHKNLNKQAYDLAKALL [PDS5B], the protein stability index is, setting by setting: under setting [1], 3.47 ± 0.59; under setting [2], 3.07 ± 0.89. On the same counts, the results for VMAYDRYMAICKPLHELITMNRRV [OR4A15] are 2.25 ± 0.35 and 2.23 ± 0.37. As to VNCISPLKYFSDFRPYFTIHDSEF [DENND6A], the protein stability index was 2.27 ± 0.68 under setting [1] and 1.92 ± 0.19 under setting [2]. As to VNEFSLKGVDFQKFCMNGAALCAL [ETS1], the protein stability index by setting is: under setting [1], 2.32 ± 0.76; under setting [2], 2.3 ± 0.033. With VNLQRFGMNGQMLCNLGKERFLEL [ETS2], the protein stability index by setting is: under setting [1], 2.27 ± 0.36; under setting [2], 2.27 ± 0.33.

For VPPGVVNIVFGTGPRVGEALVSHP [ALDH8A1], the protein stability index runs as follows: under setting [1], 2.21 ± 0.36; under setting [2], 2.27 ± 0.35.

With VQAWPFTCLPLGVLMKGQHLHLET [PRAME], the protein stability index is, setting by setting: under setting [1], 2.58 ± 0.3; under setting [2], 2.82 ± 0.39. In the case of VQGLMKEYLLSFPAGKTPVPAGEE [VPS39], the protein stability index was found to be 3.83 ± 0.39 under setting [1] and 3.88 ± 0.093 under setting [2]. In turn, VQQWLQKGTPASKLILGMPTYGRS [CHIT1] showed a protein stability index under setting [1] of 2.25 ± 0.25 and a protein stability index under setting [2] of 2.51 ± 0.29.

For the sequence VRFSLGTTTHAPPGVHRRYSALRE [PPFIA4], the protein stability index worked out at 2.72 ± 0.19 under setting [1] and 2.76 ± 0.19 under setting [2]. Turning to VRGEDSGRKPERRRLKTTRLKEYT [DAPK3], the protein stability index was 3.97 ± 0.45 under setting [1] and 4.51 ± 0.17 under setting [2]. On the same counts, the results for VRGPLQDSSWYEPSAELVQTRMAV [ZNF232] are 2.96 ± 0.17 and 3.09 ± 0.24. On the same counts, the results for VRNLFGLDPSSGAIHVLGPIDFEE [PCDHGC5] are 2.19 ± 0.14 and 2.33 ± 0.14.

For the sequence VRNNRSIIKQLKDVFERDWYSPYA [PLD5], the protein stability index was determined as 2.41 ± 0.54 under setting [1] and 2.41 ± 0.21 under setting [2]. Turning to VRSKYNDDIRKGIVLLEELLPKGS [FIS1], the protein stability index reads like this: under setting [1], 2.87 ± 0.04; under setting [2], 2.84 ± 0.14. For VRSLRGEEPVPRERDRDPCGGSGG [LURAP1L], the protein stability index under setting [1] was 5.34 ± 0.24 and the protein stability index under setting [2] stood at 5.35 ± 0.095. As to VRVNDGGGSHPSRPNSRHTPSFSG [VDR], the protein stability index under setting [1] worked out at 3.72 ± 0.14 and the protein stability index under setting [2] came out at 3.86 ± 0.19.

With VRVNVLLSRYLIEPCGPGKSKLTY [DLC1], the protein stability index by setting is: under setting [1], 3.25 ± 0.83; under setting [2], 2.68 ± 0.38. Regarding VSATKAEAEKDGVKVPTTLAEYCI [UBE2R2], the protein stability index under setting [1] was determined as 4.5 ± 0.33 and the protein stability index under setting [2] amounted to 4.5 ± 0.28. As to VSFSTGAGGWSNHHFCVILLGFLP [BET1L], the protein stability index worked out at 2.82 ± 0.39 under setting [1] and 2.8 ± 0.36 under setting [2]. VSMLGYPFILPDMVGGNAVPQRTA [MYORG]: the protein stability index runs as follows: under setting [1], 2.25 ± 0.42; under setting [2], 2.54 ± 0.32. Regarding VSRRLSPRKVSTCTDHELENHSMY [TRIM9], the protein stability index reads like this: under setting [1], 3.7 ± 0.22; under setting [2], 3.77 ± 0.19.

In the case of VSSSEQLQSCQAEIIELRRTVNAL [KRT34], the protein stability index amounted to 3.02 ± 0.2 under setting [1] and 2.77 ± 0.3 under setting [2]. On to VSTNTAMIQTSKTEITELRRTLQG [KRT13], for which the protein stability index is, setting by setting: under setting [1], 4.08 ± 0.3; under setting [2], 4.06 ± 0.22. In the case of VSVTYCSVSQDFPGSNLNLLTNNS [ETS2], the protein stability index was 2.59 ± 0.39 under setting [1] and 2.32 ± 0.39 under setting [2].

For VSYQLADGGEPQSVQVDGQARTQK [TNXB], the protein stability index is 5.184 ± 0.024 under setting [1] and 5.21 ± 0.1 under setting [2]. Consider VTCKDKKGYTPLHAAASNGQINVV [ANKRD44], for which the protein stability index was 3.34 ± 0.12 under setting [1] and 3.24 ± 0.27 under setting [2].

Take VTFAAMQAQQGRSSLVWLFSQLYL [MCOLN1]: the protein stability index is 3.03 ± 0.67 under setting [1] and 2.75 ± 0.47 under setting [2].

As for VTYMNMTAYNKGRLQSSFWIVDKQ [PLD5], the protein stability index under setting [1] came to 2.39 ± 0.6 and the protein stability index under setting [2] came out at 2.33 ± 0.39. On the same counts, the results for VVIFQREPESKNAPHSQGEYDVYS [PPP2R2C] are 2.5 ± 0.23 and 2.85 ± 0.27. Turning to VVKFVNFLLVNGFQTAIDIFEDRI [TRAF3IP2], the protein stability index under setting [1] is 2.33 ± 0.45 and the protein stability index under setting [2] amounted to 2.83 ± 0.59. Take VVNHLSCDEARNHYGGVVSLIPLI [SPACA9]: the protein stability index under setting [1] turned out to be 2.2 ± 0.14 and the protein stability index under setting [2] came out at 2.12 ± 0.24. On the same counts, the results for VWVGVIRYLTFFHNYNILIATLRV [MCOLN1] are 3.13 ± 0.1 and 2.86 ± 0.37. On the same counts, the results for WAAKAPGASSREEPPEEPEQCPVI [SPDEF] are 5.28 ± 0.31 and 5.27 ± 0.2. For WAVQGQNVLHGYPKDIYSSFGFPR [MMP1], the protein stability index reads like this: under setting [1], 2.39 ± 0.18; under setting [2], 2.15 ± 0.057. For the sequence WCGISTDMWRSENQNRAYVTLAAH [ZBED1], the protein stability index under setting [1] came out at 2.37 ± 0.4 and the protein stability index under setting [2] is 2.07 ± 0.05. On to WSIFYFFKSFQYPLPWSECPVVRN [SLC6A17], for which the protein stability index under setting [1] is 2.41 ± 0.17 and the protein stability index under setting [2] was 2.59 ± 0.47. As for YALQMEQLNGILLHLESELAQTRA [KRT18], the protein stability index by setting is: under setting [1], 2.24 ± 0.18; under setting [2], 2.43 ± 0.29.

YDMSDTNSDPEVVNVDNLLAAAVV [C18orf25]: the protein stability index under setting [1] was found to be 4.06 ± 0.35 and the protein stability index under setting [2] was 4.02 ± 0.26.

With YEELRNSERAEVQRLEEQERRHRE [RSPH3], the protein stability index was 5.4 ± 0.25 under setting [1] and 5.38 ± 0.28 under setting [2]. Regarding YEYDHWDAAIHGFRETEKSRWSEA [ALKBH7], the protein stability index is, setting by setting: under setting [1], 3.64 ± 0.38; under setting [2], 3.73 ± 0.22. YEYTSCTTFSTTSGYMEGYYTFHF [FBXO3]: the protein stability index by setting is: under setting [1], 3.37 ± 0.42; under setting [2], 3.2 ± 0.31.

In turn, YFLELTQSFIIPLERYVASLMPLQ [DENND6A] came in with a protein stability index under setting [1] of 2.56 ± 0.11 and a protein stability index under setting [2] of 3.15 ± 0.33.

On to YGRSDVVVLCFSIANPNSLHHVKT [RHOBTB2], for which the protein stability index came out at 3.33 ± 0.47 under setting [1] and 2.69 ± 1.8 under setting [2]. Regarding YGTKKFMQELTEMLGFRPYRFYFY [SLC6A17], the protein stability index was found to be 2.29 ± 0.95 under setting [1] and 2.28 ± 0.48 under setting [2]. On to YHCPGSPDHQVPYGHDYPRAAYQQ [TRAF3IP2], for which the protein stability index was 3.13 ± 0.45 under setting [1] and 3.5 ± 0.28 under setting [2].

For the sequence YHSQDRYEFSSHITRGEHRFHMS [IKZF1], the protein stability index under setting [3] came to 2.85 ± 0.39 and the protein stability index under setting [4] worked out at 2.86 ± 0.58. Turning to YIHSCPKMKYKGQYRPSDLLCPET [ATE1], the protein stability index turned out to be 2.06 ± 0.29 under setting [1] and 2.47 ± 0.34 under setting [2]. On the same counts, the results for YIRCQKEVGKSFERHKLKRQDADA [SMG5] are 3.46 ± 0.53 and 3.43 ± 0.23. For the sequence YKKAVGLKLKQEKKEAYLKLKQG [WDR88], the protein stability index by setting is: under setting [3], 2.81 ± 0.4; under setting [4], 3.13 ± 0.3.

Sequence YKSWLKNLAKEQLSRENIQSSLLE [PPEF2] gave a protein stability index under setting [1] of 2.72 ± 0.24 and a protein stability index under setting [2] of 2.86 ± 0.13. On the same counts, the results for YLLKFLLVGDSDVGKGEILESLQD [RAB40C] are 2.72 ± 0.38 and 2.45 ± 0.49.

In turn, YNVIIGWSIFYFFKSFQYPLPWSE [SLC6A17] displayed a protein stability index under setting [2] of 3.32 ± 0.67. As for YPENDWDTAAPVPQKDLEIFKNF [PRKX], the protein stability index is, setting by setting: under setting [3], 5.08 ± 0.33; under setting [4], 5.33 ± 0.25. For the sequence YQLGEEALLKFREDEGFVREEEDR [KCNA4], the protein stability index under setting [1] worked out at 4.51 ± 0.22 and the protein stability index under setting [2] amounted to 4.85 ± 0.31. On to YQNHKITQLKIENNPFAKGFRGSD [TBX5], for which the protein stability index reads like this: under setting [1], 2.96 ± 0.5; under setting [2], 3.55 ± 0.61. As for YQPKRYALSPKTTITMAHLLAARE [FAM98B], the protein stability index is, setting by setting: under setting [1], 2.31 ± 0.091; under setting [2], 2.6 ± 0.39.

Regarding YQVHDYLRSKLCSLYENDCIFDKF [PPP2R2B], the protein stability index runs as follows: under setting [1], 2.58 ± 0.71; under setting [2], 2.27 ± 0.48.

Regarding YRFYFYMWKFVSPLCMAVLTTASI [SLC6A17], the protein stability index under setting [2] worked out at 4.42 ± 0.71.

The sequence YRGMLDTHHKLCTFILKNPPENSD [EIF5] registered a protein stability index under setting [1] of 3.29 ± 0.2 and a protein stability index under setting [2] of 3.25 ± 0.18. As for YRRHVLGIVLQGPALCFAAAIFSL [TMEM175], the protein stability index runs as follows: under setting [1], 2.93 ± 0.18; under setting [2], 2.85 ± 0.39. As to YSDGADDTFAAYTREQLYQAIFHA [MCOLN1], the protein stability index by setting is: under setting [1], 2.54 ± 0.23; under setting [2], 2.52 ± 0.37. On the same counts, the results for YSGPPSPHGTLRVCTISSTGPLQP [PKD2L1] are 2.65 ± 0.57 and 2.83 ± 0.3.

Regarding YSIPEELEKGSFVGNISKDLGLAP [PCDHGA10], the protein stability index turned out to be 3.59 ± 0.4 under setting [1] and 3.7 ± 0.29 under setting [2]. YVASHKIEKEEQEKKRKEEEERRR [ACBD3]: the protein stability index is, setting by setting: under setting [1], 3.2 ± 1.1; under setting [2], 4.37 ± 0.73. In turn, YVEVKEGKTWKQICDKHWTAKNSR [LOXL2] yielded a protein stability index under setting [1] of 2.62 ± 0.8 and a protein stability index under setting [2] of 3.28 ± 0.61. Regarding YYGFSESAESQGLDGAGLMGFVPH [ADAMTSL2], the protein stability index worked out at 3 ± 0.41 under setting [1] and 3 ± 0.47 under setting [2].

The record behind these values is the supplement of paper PMC10567573.
